Measured values as given in patent publication US20070274915.

T1: bacterially-expressed HHR23A substrate, P54725
T1 chain: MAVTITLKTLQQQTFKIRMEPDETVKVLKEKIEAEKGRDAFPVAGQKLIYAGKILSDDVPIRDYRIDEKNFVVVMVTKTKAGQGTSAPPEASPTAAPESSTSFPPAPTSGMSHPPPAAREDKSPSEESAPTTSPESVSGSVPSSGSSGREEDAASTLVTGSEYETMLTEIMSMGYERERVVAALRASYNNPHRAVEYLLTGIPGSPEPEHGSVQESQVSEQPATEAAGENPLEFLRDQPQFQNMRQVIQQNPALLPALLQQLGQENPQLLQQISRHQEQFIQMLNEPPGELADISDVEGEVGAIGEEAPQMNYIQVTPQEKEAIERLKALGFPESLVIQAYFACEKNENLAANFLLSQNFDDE


Columns and labels:
[1] = target: T1, bacterially-expressed HHR23A substrate, …

Chain of AU-tagged PLC-γ1 (P19174 2-1290): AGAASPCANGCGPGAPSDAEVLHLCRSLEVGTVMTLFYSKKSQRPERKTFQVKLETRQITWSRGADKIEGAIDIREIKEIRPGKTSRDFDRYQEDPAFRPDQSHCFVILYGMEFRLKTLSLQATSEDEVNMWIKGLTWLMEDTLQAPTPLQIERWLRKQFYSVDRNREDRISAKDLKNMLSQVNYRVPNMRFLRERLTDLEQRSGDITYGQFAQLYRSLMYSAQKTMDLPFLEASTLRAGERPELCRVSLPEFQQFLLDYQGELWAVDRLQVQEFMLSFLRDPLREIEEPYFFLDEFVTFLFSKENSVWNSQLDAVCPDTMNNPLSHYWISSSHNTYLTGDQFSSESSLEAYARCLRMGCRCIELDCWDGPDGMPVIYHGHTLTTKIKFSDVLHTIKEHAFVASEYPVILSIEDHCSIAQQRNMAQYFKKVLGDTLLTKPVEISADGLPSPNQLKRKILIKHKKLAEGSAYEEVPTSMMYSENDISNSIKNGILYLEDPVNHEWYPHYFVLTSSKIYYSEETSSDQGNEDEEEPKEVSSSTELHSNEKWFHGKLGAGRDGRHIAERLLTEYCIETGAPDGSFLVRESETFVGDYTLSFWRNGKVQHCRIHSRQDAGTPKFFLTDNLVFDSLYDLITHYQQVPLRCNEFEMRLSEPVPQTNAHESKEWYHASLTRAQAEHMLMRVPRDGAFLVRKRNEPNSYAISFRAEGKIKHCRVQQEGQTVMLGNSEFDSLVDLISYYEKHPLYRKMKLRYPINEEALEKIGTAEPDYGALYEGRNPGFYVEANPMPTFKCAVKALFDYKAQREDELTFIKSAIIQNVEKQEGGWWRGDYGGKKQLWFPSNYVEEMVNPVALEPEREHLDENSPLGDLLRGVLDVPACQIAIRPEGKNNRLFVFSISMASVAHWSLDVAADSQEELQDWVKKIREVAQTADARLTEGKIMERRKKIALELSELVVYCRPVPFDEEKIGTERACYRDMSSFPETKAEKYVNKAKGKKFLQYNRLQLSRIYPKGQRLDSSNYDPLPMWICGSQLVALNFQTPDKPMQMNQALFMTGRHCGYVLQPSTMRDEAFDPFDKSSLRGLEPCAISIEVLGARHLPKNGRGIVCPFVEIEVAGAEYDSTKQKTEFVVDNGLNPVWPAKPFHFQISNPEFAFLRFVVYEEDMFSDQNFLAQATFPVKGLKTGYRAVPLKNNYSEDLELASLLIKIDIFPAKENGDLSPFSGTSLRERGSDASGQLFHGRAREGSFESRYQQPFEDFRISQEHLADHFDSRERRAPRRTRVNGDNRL

Protein | trans-ubiquitination of HHR23A (in vitro reaction with E1, E2 UbcH7, ubiquitin and ATP; SDS-PAGE, anti-HHR23A immunoblot) [1] | ionomycin-dependent degradation of PLC-γ1 (HEK 293 transfection, immunoblot) (AU-tagged PLC-γ1)
E6AP (purified, full-length) (protein) MKRAAAKHLIERYYHQLTEGCGNEACTNEFCASCPTFLRMDNNAAAIKALELYKINAKLCDPHPSKKGASSAYLENSKGAPNNSCSEIKMNKKGARIDFKDVTYLTEEKVYEILELCREREDYSPLIRVIGRVFSSAEALVQSFRKVKQHTKEELKSLQAKDEDKDEDEKEKAACSAAAMEEDSEASSSRIGDSSQGDNNLQKLGPDDVSVDIDAIRRVYTRLLSNEKIETAFLNALVYLSPNVECDLTYHNVYSRDPNYLNLFIIVMENRNLHSPEYLEMALPLFCKAMSKLPLAAQGKLIRLWSKYNADQIRRMMETFQQLITYKVISNEFNSRNLVNDDDAIVAASKCLKMVYYANVVGGEVDTNHNEEDDEEPIPESSELTLQELLGEERRNKKGPRVDPLETELGVKTLDCRKPLIPFEEFINEPLNEVLEMDKDYTFFKVETENKFSFMTCPFILNAVTKNLGLYYDNRIRMYSERRITVLYSLVQGQQLNPYLRLKVRRDHIIDDALVRLEMIAMENPADLKKQLYVEFEGEQGVDEGGVSKEFFQLVVEEIFNPDIGMFTYDESTKLFWFNPSSFETEGQFTLIGIVLGLAIYNNCILDVHFPMVVYRKLMGKKGTFRDLGDSHPVLYQSLKDLLEYEGNVEDDMMITFQISQTDLFGNPMMYDLKENGDKIPITNENRKEFVNLYSDYILNKSVEKQFKAFRRGFHMVTNESPLKYLFRPEEIELLICGSRNLDFQALEETTEYDGGYTRDSVLIREFWEIVHSFTDEQKRLFLQFTTGTDRAPVGGLGKLKMIIAKNGPDTERLPTSHTCFNVLLLPEYSSKEKLKERLLKAITYAKGFGML | time-dependent increase in the amount of ubiquitin-conjugated HHR23A substrate | 
myc-tagged Nedd4 isoform (accession number KIAA0093) (protein) MATCAVEVFGLLEDEENSRIVRVRVIAGIGLAKKDILGASDPYVRVTLYDPMNGVLTSVQTKTIKKSLNPKWNEEILFRVHPQQHRLLFEVFDENRLTRDDFLGQVDVPLYPLPTENPRLERPYTFKDFVLHPRSHKSRVKGYLRLKMTYLPKTSGSEDDNAEQAEELEPGWVVLDQPDAACHLQQQQEPSPLPPGWEERQDILGRTYYVNHESRRTQWKRPTPQDNLTDAENGNIQLQAQRAFTTRRQISEETESVDNRESSENWEIIREDEATMYSNQAFPSPPPSSNLDVPTHLAEELNARLTIFGNSAVSQPASSSNHSSRRGSLQAYTFEEQPTLPVLLPTSSGLPPGWEEKQDERGRSYYVDHNSRTTTWTKPTVQATVETSQLTSSQSSAGPQSQASTSDSGQQVTQPSEIEQGFLPKGWEVRHAPNGRPFFIDHNTKTTTWEDPRLKIPAHLRGKTSLDTSNDLGPLPPGWEERTHTDGRIFYINHNIKRTQWEDPRLENVAITGPAVPYSRDYKRKYEFFRRKLKKQNDIPNKFEMKLRRATVLEDSYRRIMGVKRADFLKARLWIEFDGEKGLDYGGVAREWFFLISKEMFNPYYGLFEYSATDNYTLQINPNSGLCNEDHLSYFKFIGRVAGMAVYHGKLLDGFFIRPFYKMMLHKPITLHDMESVDSEYYNSLRWILENDPTELDLRFIIDEELFGQTHQHELKNGGSEIVVTNKNKKEYIYLVIQWRFVNRIQKQMAAFKEGFFELIPQDLIKIFDENELELLMCGLGDVDVNDWREHTKYKNGYSANHQVIQWFWKAVLMMDSEKRIRLLQFVTGTSRVPMNGFAELYGSNGPQSFTVEQWGTPEKLPRAHTCFNRLDLPPYESFEELWDKLQMAIENTQGFDGVD |  | Itch and Nedd4 both facilitated the ionomycin-dependent degradation of PLC-γ1
catalytically inactive Nedd4 protein, bearing an alanine substitution at the active cysteine of the HECT domain (protein) MATCAVEVFGLLEDEENSRIVRVRVIAGIGLAKKDILGASDPYVRVTLYDPMNGVLTSVQTKTIKKSLNPKWNEEILFRVHPQQHRLLFEVFDENRLTRDDFLGQVDVPLYPLPTENPRLERPYTFKDFVLHPRSHKSRVKGYLRLKMTYLPKTSGSEDDNAEQAEELEPGWVVLDQPDAACHLQQQQEPSPLPPGWEERQDILGRTYYVNHESRRTQWKRPTPQDNLTDAENGNIQLQAQRAFTTRRQISEETESVDNRESSENWEIIREDEATMYSNQAFPSPPPSSNLDVPTHLAEELNARLTIFGNSAVSQPASSSNHSSRRGSLQAYTFEEQPTLPVLLPTSSGLPPGWEEKQDERGRSYYVDHNSRTTTWTKPTVQATVETSQLTSSQSSAGPQSQASTSDSGQQVTQPSEIEQGFLPKGWEVRHAPNGRPFFIDHNTKTTTWEDPRLKIPAHLRGKTSLDTSNDLGPLPPGWEERTHTDGRIFYINHNIKRTQWEDPRLENVAITGPAVPYSRDYKRKYEFFRRKLKKQNDIPNKFEMKLRRATVLEDSYRRIMGVKRADFLKARLWIEFDGEKGLDYGGVAREWFFLISKEMFNPYYGLFEYSATDNYTLQINPNSGLCNEDHLSYFKFIGRVAGMAVYHGKLLDGFFIRPFYKMMLHKPITLHDMESVDSEYYNSLRWILENDPTELDLRFIIDEELFGQTHQHELKNGGSEIVVTNKNKKEYIYLVIQWRFVNRIQKQMAAFKEGFFELIPQDLIKIFDENELELLMCGLGDVDVNDWREHTKYKNGYSANHQVIQWFWKAVLMMDSEKRIRLLQFVTGTSRVPMNGFAELYGSNGPQSFTVEQWGTPEKLPRAHTCFNRLDLPPYESFEELWDKLQMAIENTQGFDGVD |  | did not promote this decrease (FIG. 17D; lanes 5, 6), but prevented the small but significant decrease in PLC-γ1 levels observed in ionomycin-treated cells
